According to patent US20200164032A1 (WASHINGTON UNIVERSITY, published 2020):

What was measured:
human CCL2 = molecular target: T1, human CCL2 (human, UniProt P13500 24-99); assay: SPR, R17 on CM5 chip
T1 construct: also called hCCL2

murine CXCL12 = molecular target: T2, murine CXCL12 (mouse, UniProt P40224 22-89); assay: SPR, R17 on CM5 chip
T2 construct: also called mCXCL12

murine IL-12 = molecular target: T3, murine IL-12 (mouse, UniProt P43431 23-215; P43432 23-335); assay: SPR, R17 on CM5 chip
T3 construct: also called mIL-12
T3 sequence 1: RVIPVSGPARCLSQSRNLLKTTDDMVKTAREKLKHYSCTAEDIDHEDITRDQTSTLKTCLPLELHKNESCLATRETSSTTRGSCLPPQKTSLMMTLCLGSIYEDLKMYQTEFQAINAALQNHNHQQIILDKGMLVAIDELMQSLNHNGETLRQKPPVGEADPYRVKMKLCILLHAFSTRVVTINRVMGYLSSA
T3 sequence 2: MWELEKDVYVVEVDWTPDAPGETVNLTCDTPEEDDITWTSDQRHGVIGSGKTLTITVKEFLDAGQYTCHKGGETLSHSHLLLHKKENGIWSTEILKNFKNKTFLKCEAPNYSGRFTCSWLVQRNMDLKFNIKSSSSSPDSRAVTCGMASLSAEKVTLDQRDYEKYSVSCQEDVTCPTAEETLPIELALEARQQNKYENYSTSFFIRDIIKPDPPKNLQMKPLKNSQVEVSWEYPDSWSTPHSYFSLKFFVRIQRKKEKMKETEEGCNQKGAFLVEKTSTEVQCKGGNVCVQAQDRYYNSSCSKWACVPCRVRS

murine CXCL10 = molecular target: T4, murine CXCL10 (mouse, UniProt P17515 22-98); assay: SPR, R17 on CM5 chip
T4 construct: also called mCXCL10
T4 sequence: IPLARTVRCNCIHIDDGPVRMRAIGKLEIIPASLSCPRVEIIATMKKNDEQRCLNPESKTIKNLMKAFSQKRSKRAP

murine CCL24 = molecular target: T5, murine CCL24 (mouse, UniProt Q9JKC0 27-119); assay: SPR, R17 on CM5 chip
T5 construct: also called mCCL24
T5 sequence: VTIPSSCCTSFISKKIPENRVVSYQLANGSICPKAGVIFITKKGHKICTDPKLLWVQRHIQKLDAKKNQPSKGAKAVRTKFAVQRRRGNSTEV

murine TNF-alpha = molecular target: T6, murine TNF-alpha (mouse, UniProt P06804 80-235); assay: SPR, R17 on CM5 chip
T6 construct: also called mTNF-alpha; TNF-α
T6 sequence: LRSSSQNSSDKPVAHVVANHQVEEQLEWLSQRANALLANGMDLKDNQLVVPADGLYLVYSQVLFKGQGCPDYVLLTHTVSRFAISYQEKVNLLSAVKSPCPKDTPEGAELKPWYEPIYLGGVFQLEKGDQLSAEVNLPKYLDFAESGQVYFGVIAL

murine CCL21 = molecular target: T7, murine CCL21 (mouse, UniProt P84444 24-133); assay: SPR, R17 on CM5 chip
T7 construct: also called mCCL21
T7 sequence: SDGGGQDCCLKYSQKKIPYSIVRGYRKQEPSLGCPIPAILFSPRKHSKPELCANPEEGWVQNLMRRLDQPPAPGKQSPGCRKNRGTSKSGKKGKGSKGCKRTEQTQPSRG

murine IL-6 = molecular target: T8, murine IL-6 (mouse, UniProt P08505 25-211); assay: SPR, R17 on CM5 chip
T8 construct: also called mIL-6
T8 sequence: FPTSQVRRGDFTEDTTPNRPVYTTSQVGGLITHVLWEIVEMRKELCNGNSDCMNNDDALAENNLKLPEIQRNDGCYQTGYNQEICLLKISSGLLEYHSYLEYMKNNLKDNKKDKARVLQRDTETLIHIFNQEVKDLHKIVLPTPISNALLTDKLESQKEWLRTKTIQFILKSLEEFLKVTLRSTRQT

murine CXCL2 = molecular target: T9, murine CXCL2 (mouse, UniProt P10889 28-100); assay: SPR, R17 on CM5 chip
T9 construct: also called mCXCL2
T9 sequence: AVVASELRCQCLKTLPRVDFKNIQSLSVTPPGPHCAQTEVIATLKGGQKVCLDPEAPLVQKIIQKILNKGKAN

human CCL3 = molecular target: T10, human CCL3 (human, UniProt P10147 23-92); assay: SPR, R17 on CM5 chip
T10 construct: also called hCCL3
T10 sequence: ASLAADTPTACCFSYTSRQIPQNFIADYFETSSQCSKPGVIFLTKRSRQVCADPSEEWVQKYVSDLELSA

murine IL-17 = molecular target: T11, murine IL-17 (mouse, UniProt Q62386 26-158); assay: SPR, R17 on CM5 chip
T11 construct: also called mIL-17
T11 sequence: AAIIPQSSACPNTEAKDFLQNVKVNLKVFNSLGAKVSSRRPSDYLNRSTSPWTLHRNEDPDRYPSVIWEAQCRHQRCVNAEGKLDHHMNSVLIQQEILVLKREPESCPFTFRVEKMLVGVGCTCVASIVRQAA

murine CXCL9 = molecular target: T12, murine CXCL9 (mouse, UniProt P18340 22-126); assay: SPR, R17 on CM5 chip
T12 construct: also called mCXCL9
T12 sequence: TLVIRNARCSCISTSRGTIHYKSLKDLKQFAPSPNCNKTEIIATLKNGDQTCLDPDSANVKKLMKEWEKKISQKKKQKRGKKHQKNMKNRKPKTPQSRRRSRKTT

murine CXCL1 = molecular target: T13, murine CXCL1 (mouse, UniProt P12850 25-96); assay: SPR, R17 on CM5 chip
T13 construct: also called mCXCL1
T13 sequence: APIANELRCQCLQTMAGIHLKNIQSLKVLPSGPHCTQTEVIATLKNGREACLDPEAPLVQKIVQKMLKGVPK

murine CCL4 = molecular target: T14, murine CCL4 (mouse, UniProt P14097 24-92); assay: SPR, R17 amine-coupled to CM5 chip
T14 construct: also called mCCL4
T14 sequence: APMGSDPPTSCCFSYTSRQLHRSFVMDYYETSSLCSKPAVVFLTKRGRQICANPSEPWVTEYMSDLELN

murine CCL19 = molecular target: T15, murine CCL19 (mouse, UniProt O70460 26-108); assay: SPR, R17 amine-coupled to CM5 chip
T15 construct: also called mCCL19
T15 sequence: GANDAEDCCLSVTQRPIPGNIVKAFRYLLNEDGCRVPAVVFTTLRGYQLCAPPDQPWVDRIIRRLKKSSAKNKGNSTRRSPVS

human CCL5 = molecular target: T16, human CCL5 (human, UniProt P13501 24-91); assay: SPR, R17 amine-coupled to CM5 chip
T16 construct: also called hCCL5
T16 sequence: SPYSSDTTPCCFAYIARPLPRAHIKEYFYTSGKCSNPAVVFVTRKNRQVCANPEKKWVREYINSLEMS

T2 sequence (P40224 22-89 limits assumed): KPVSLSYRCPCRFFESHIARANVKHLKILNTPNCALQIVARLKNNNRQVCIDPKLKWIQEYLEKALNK
T1 sequence (P13500 24-99 limits assumed): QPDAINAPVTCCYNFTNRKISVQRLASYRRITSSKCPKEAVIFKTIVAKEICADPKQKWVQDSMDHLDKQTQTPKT

B1: R17 chemokine decoy receptor of Rodent herpesvirus Peru (RHVP), wild type, C-terminal 8-His fusion (receptor)
chain: GPVGEPVASEINEASKVSSRLLTQDILFRKDRQATISLPIKLPVEDIITQTCDKITYGPLKFLDLLEKETAVLPLSTDITCPACLGRAVLVGKWECPAHVAVNESDLTVFGPNKEEHVPQFVTVQQPSDGKMQRLFFAKFLGTEESLAVLRVPGPDGHLCIQEALIHFKELSGAGVCSLWKANDSREEGLEMKQVDCLETTVLENQTCIATTLSKKIYHRLYCGERLMTGGQVSTRVLLTALGFYKRQPYTFHRVPKGMVYVHLIDSGSEDYMEYSECEEVTPGRYEDKQISYTFYTDLFQTADGEPVLASVWGTSGLKDSAYESCAFVIPTKGRRKLVPRRIMSKCYPFRLTYHPSTMTVRLDVRVEKHHGATDQGFVFLKMESGTYSEGREYYLDRVLWGEDSSTNNVLQ
notes: not shown: C-terminal 8-His tag
With B1 the “complex half-life (t1/2)” value (human CCL2) was 0.035 min, the binding result (murine CXCL12) was “no binding” and the binding result (murine IL-12) was “no binding”. For the same binder, the binding result (murine CXCL10) was “no binding”, the complex half-life (murine CCL24) was > 10 min and the binding result (murine TNF-alpha) was “no binding”. B1: no binding (murine CCL21); no binding (murine IL-6); no binding (murine CXCL2). For the same binder, the “apparent complex half-life (t1/2,app)” value (human CCL3) was > 16.7 min, the binding result (murine IL-17) was “no binding” and the binding result (murine CXCL9) was “no binding”. The binding result (murine CXCL1) was “no binding”, the “dissociation time of the complex” value (murine CCL4) was > 10 min and the binding result (murine CCL19) was “binds”. For the same binder, the “dissociation time of the complex” value (human CCL5) was > 10 min.
